One data set relates to non-NMDA receptor. The data set can be described thus: inhibition of minimal-stimulation single fiber EPSC amplitude by γ-DGG in layer 2/3 barrel cortex pyramidal neurons (brain slices). In kind it is cell-based, mouse. The conditions noted are these: γ-DGG 300 μM; Ube3a (2×) transgenic vs wild-type neurons; P=0.0127, n=7-8. On the procedure:
The vesicle glutamate content was estimated by the relative inhibition of mean single fiber EPSC amplitude by the fast off-rate, non-NMDA receptor blocker γ-DGG (300 μM). The higher the percentage inhibition by γ-DGG, the lower the concentration of synaptic glutamate. Detailed protocols are available in the Extended Experimental Procedures.
The vesicle glutamate content was estimated by the relative inhibition of mean single fiber EPSC amplitude by the fast off-rate, non-NMDA receptor blocker γ-DGG (300 μM). The higher the percentage inhibition by γ-DGG, the lower the concentration of synaptic glutamate (see ref. 21). To selectively stimulate a single fiber in layer 2/3 of the barrel cortex, minimal stimuli were delivered through ACSF-filled bipolar glass electrodes pulled from 2.0 mm OD dual barrel theta capillary glass (Warner Instruments). The tip of the stimulating electrodes is about 2 μm. To establish a minimal stimulation, we first sought for the highest stimulus that gave all failures. […] To acquire a reasonable number of EPSCs from 40-100 trials in both baseline and γ-DGG conditions at 0.3 Hz, we adjusted the stimulation intensity to give about 10% failures (WT: 9.7±2.4%, n=8; 1×: 9.7±3.4%, n=8; 2×: 11.6±4.6%, […]; F(2, 21)=0.106, P=0.90). Under this failure rate, the calculated quantal content was about 2. […]

Data set [1] relates to recombinant Arc.
In data set [2] the test system is recombinant Arc. The data set can be described thus: in vitro target protein degradation (ubiquitination) assay with immunoprecipitated Ube3a-FLAG. In kind it is biochemical. The conditions noted are these: FLAG antibody immunoprecipitate from Tg cortical lysate; control Wt 1.26±0.04; P=0.01; n=3 independent in vitro assays. On the procedure:
Ube3a expression was confirmed by western blot of cortical lysates using both anti-FLAG M2 antibody (Sigma) and anti-Ube3a (BD Biosciences). The ubiquitin ligase activity of Ube3a was assayed by an in vitro target protein degradation assay. Ube3a was immunoprecipitated using anti-FLAG M2 antibodies and protein G magnetic beads (NEB) and eluted in non-denaturing conditions using a 3× FLAG peptide (Sigma). 1 μg of recombinant ARC (BD Biosciences) was added to 10 μl of immunoprecipitated Ube3a in the presence of 50 ng E1 and 100 ng UbcH7 enzymes and 4 μg HA-ubiquitin (Boston Bioproducts) as in (19). Western blots were probed with anti-ARC (Santa Cruz) and quantified using ImageJ (NIH). Detailed protocols are available in the Extended Experimental Procedures.
Cortical lysates were prepared in PBS with 1% TritonX-100 and protease inhibitors, incubated with 4 μg of anti-FLAG antibodies overnight, and with 50 μl of protein G magnetic beads (NEB) for immunoprecipitation (IP). Beads were washed 5× with PBS and Ube3a-FLAG was eluted with 3× FLAG peptide (Sigma) in 100 μl PBS, and IP success was confirmed by western blot. […]

Results on three molecules are retold here after patent US20140298494A1, “ANIMAL MODEL OF AUTISM” (Beth Israel Deaconess Medical Center, Inc., priority 2011, published 2014).

“Also recorded” adds a separate entry of the source.

Turning to `N[C@H](CCC(=O)NCC(=O)O)C(=O)O` [γDGG, γ-D-glutamylglycine], in the data set with non-NMDA receptor, the “Reduction of EPSC amplitude by γ-DGG” value is “reduce EPSC amplitude to a greater extent in Ube3a (2×) transgenic than in wild-type neurons; also recorded: increased γDGG inhibition in Ube3a transgenic mice”.

For the molecule “FLAG-tagged full length Ube3a (transgenic mouse Ube3a with C-terminal 3×FLAG tag, immunoprecipitated from cortical lysates of transgenic mice)”, in the data set on recombinant Arc [1], the “in vitro target protein degradation assay (Arc on western blot probed with anti-ARC, quantified with ImageJ)” value is reported as “mean±SEM Wt: 1.26±0.04 vs. Tg: 0.58±0.16; P=0.01 by t test; n=3 independent in vitro assays”.

B1: transgenic Ube3a: full-length FLAG-tagged transgenic Ube3a ubiquitin ligase immunoprecipitated from transgenic mouse cortical lysate (protein, UniProt O08759 1-870, looked up)
chain: MATACKRSPGESQSEDIEASRMKRAAAKHLIERYYHQLTEGCGNEACTNEFCASCPTFLRMDNNAAAIKALELYKINAKLCDPHPSKKGASSAYLENSKGASNNSEIKMNKKEGKDFKDVIYLTEEKVYEIYEFCRESEDYSPLIRVIGRIFSSAEALVLSFRKVKQHTKEELKSLQEKDEDKDEDEKEKAACSAAAMEEDSEASSSRMGDSSQGDNNVQKLGPDDVTVDIDAIRRVYSSLLANEKLETAFLNALVYLSPNVECDLTYHNVYTRDPNYLNLFIIVMENSNLHSPEYLEMALPLFCKAMCKLPLEAQGKLIRLWSKYSADQIRRMMETFQQLITYKVISNEFNSRNLVNDDDAIVAASKCLKMVYYANVVGGDVDTNHNEEDDEEPIPESSELTLQELLGDERRNKKGPRVDPLETELGVKTLDCRKPLISFEEFINEPLNDVLEMDKDYTFFKVETENKFSFMTCPFILNAVTKNLGLYYDNRIRMYSERRITVLYSLVQGQQLNPYLRLKVRRDHIIDDALVRLEMIAMENPADLKKQLYVEFEGEQGVDEGGVSKEFFQLVVEEIFNPDIGMFTYDEATKLFWFNPSSFETEGQFTLIGIVLGLAIYNNCILDVHFPMVVYRKLMGKKGTFRDLGDSHPVLYQSLKDLLEYEGSVEDDMMITFQISQTDLFGNPMMYDLKENGDKIPITNENRKEFVNLYSDYILNKSVEKQFKAFRRGFHMVTNESPLKYLFRPEEIELLICGSRNLDFQALEETTEYDGGYTRESVVIREFWEIVHSFTDEQKRLFLQFTTGTDRAPVGGLGKLKMIIAKNGPDTERLPTSHTCFNVLLLPEYSSKEKLKERLLKAITYAKGFGML
modifications: full-length FLAG tag
notes: full-length FLAG-tagged transgenic Ube3a ubiquitin ligase immunoprecipitated from transgenic mouse cortical lysate
As to B1, in the data set with recombinant Arc [2], the “Recombinant Arc level after in vitro degradation (western blot, mean±SEM)” value is given as 0.58±0.16.
